40 sequences from the nanobody polyreactivity screen of Harvey et al. (2022) can be followed below.

The series can be described thus: yeast display, Sf9 membrane polyspecificity reagent, FACS + sequencing; frameworks hold sequencing errors. In outline: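 Using colony PCR, genes from sorted yeast display clones were amplified, then sequenced on MiSeq at 2 × 250 and filtered by CDR length. The clones had been stained with 10% biotinylated, detergent-solubilized Sf9 membrane reagent for 1 hour at 4 °C and sorted by FACS into low and high (top ~1%) gates on anti-HA and streptavidin fluorescence. Polyreactivity labels come from the gate of origin.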
Take “QVQLVESGGGLVQAGGSLRLSCAASGSIFLQYAMAWYRQAPGKERELVAAISWSGGSTYYAYSVKGRFTISRDNAKNTVYLQMNSLKPEDTAVYYCAAPITPYSHYRMDYWGQGTQVTVSS”: the “polyreactivity (PSR sort gate)” value was “low polyreactivity”.

For the sequence “QVQLVESGGGLVQAGGSLRLSCAASGSTLYRYAMGWYRQAPGKERELVAAISSAGSTHYADSVKGRFTISRDNAKNTVYLQMNSLKPEDTAVYYCAAKRYLKYGYWGQGTQVTVSS”, the “polyreactivity (PSR sort gate)” value is recorded as “high polyreactivity”.

With “QVQLVESGGGIVQAGGSLRLSCAASGRIFYGYTMGWYRQAPGKERELVASIDYSTGRTYYADSVKGRFTISRDNAKNTVYLLMNSLKPEDTAVYYCNADPNYSFLRYDYWGQGTQVTVSS”, the “polyreactivity (PSR sort gate)” value is given as “high polyreactivity”.

“QVQLVESVGGLVQAGGSLRLSCAASGRIFGTNAMGWYRQAPGKERELVADITSGGSTNYADSVKGRFTISRDNAKNTVYLQMNSLKPEDTAVYYCAADVIGDLRWYRDEYWGQGTQVTVSS”: the “polyreactivity (PSR sort gate)” value is on record as “low polyreactivity”.

On to “QVQLVESGGGLVQAGGSLRLSCAASGGLFTAYTMGWYRQAPGKERELVAVISSGGGRTYYADSVKGRFTISRDNAKNSVYLQMNSRKPEDTAVYYCNARVYVSANKYDYWGQGTQVTVSS”, for which the “polyreactivity (PSR sort gate)” value was “high polyreactivity”.

For “QVQLVESGGGLVQAGGRLRLSCAASGRTFRRYTMGWYRQAPGKERELVAAISRNGGSTYYADSVKGRFTISRDNAKNTVYLQMNSLKPEDTAVYYCAALRYAYIADYDYWGQGTQVTVSS”, the “polyreactivity (PSR sort gate)” value was “high polyreactivity”.

Consider “QVQLVESGGGLVQAGGSLRLSCAASGSIIGRYAMGWYRQAPGKERELVAAISTGGGRTYYADSVKGRFTISRDSAKNTVYFQLNSLKPEDTAVYYCNAGPYKGWGRMDYWGQGTQVNVSS”, for which the “polyreactivity (PSR sort gate)” value is reported as “high polyreactivity”.

Consider “QVQLVESGGGLVQAGGSLRLSCAASGFTFARYAMGWYRQAPGKERELVAAITYSGSGTYYADSVKGRFTISRDNAKNTVYLQMNSLKPEDTAVYYCYPVTRSARSYDYWGQGTQVTVSS”, for which the “polyreactivity (PSR sort gate)” value is on record as “high polyreactivity”.

In the case of “QVQLVESGGGLVQAGGSLRLSCAASGRTFFLYAMGWYRQAPGKESEFVATISYGGGSTYYADSVKGRFTISRDNAKNTVYLQMNSLKPEDTAVYYCNALNTSQYAEGTSDYDGNMGNWGQCTQVTVSS”, the “polyreactivity (PSR sort gate)” value was “low polyreactivity”.

As to “QVQLVESVGGLVQAGGSLRLICAASGFIFWDYAMGSDRQAPGKERELVAAISDSGGDTYYAESVKGRFTISRDNAKNTVYLQMNSLKPEDTAVYFCAADLGRNYDYWGQGTQVTVLS”, the “polyreactivity (PSR sort gate)” value is recorded as “low polyreactivity”.

Turning to “QVQLVESGGGLVQAGGSLRLSCAASGSTFRYNAMGWYRQAPGKERELVAAITSGGTTNYADSVKGRFTISRDNAKNTVYLQMNSLKPEDTAVYYCNAYVAYWGWVYRVDYWGQGTQVTVSS”, the “polyreactivity (PSR sort gate)” value is reported as “low polyreactivity”.

“QVQLLESGGGLVQAGGSLRLSCAASGGIFPAYAMGWYRQAPGKERELFADITNGGSTYYADSVKGRFTISRDNAKNTVYLQMNSLKPEDTAVYYCNAREFWRTRFGCGYPYRRNMDYWGQGTQVTVSS”: the “polyreactivity (PSR sort gate)” value is on record as “low polyreactivity”.

Turning to “QVQLVESAGGLVQAGGSLRLSCAASGRIFSHYAMGWYRQAPGKERELVAAITSSGGSTSYADSVKGRFTISRDNAKNTVYLQMNSLKPEDTAVYYCAAEDTQVRRSPVRPLEDYWGQGTQVTVSS”, the “polyreactivity (PSR sort gate)” value is on record as “low polyreactivity”.

Turning to “QVQLVESGGGLVQAGGSLRLSCAASGFIFGRYAMGWYRQAPGKERELVAAITYSSGSTYYADSVKGRFTISRDNAKNTVYLQMNSLKPEDTAVYYCNAEFWYETLYEYDYWGQGTQVTVSS”, the “polyreactivity (PSR sort gate)” value was “high polyreactivity”.

Turning to “QVQLVESGGGLVQAGGSLRLSCAACGRTSSIYAMGWYRQAPGKERELVATITGGAVSTSYADSVKGRFTISRDNAKYTVYLQMNSLKPEDSAVYYCAADHWRYRSRPVNYWRQGTQVTVSS”, the “polyreactivity (PSR sort gate)” value is recorded as “high polyreactivity”.

For “QVQLVESGGGLVQAGASLRLSCAASGSNFWFYAMGWYRQAPGKERELVAVISNSGSTYYADSVKGRFTFSRDNAQNTVYLQMNSLKAEDTAVYYCNKDGGGDSYWYDYWGQGTQVTVSS”, the “polyreactivity (PSR sort gate)” value is on record as “low polyreactivity”.

For “QVQLVESGGGLVQAGGRLRLSCAASGFIIARNAMGWYRQAPGKERELVAASSASGGRTYYADSVKGRFTISRDNAKNTVYLQMNSLKPEDTAVYYCAARRDGRSGSFNYWGQGTQVTVSS”, the “polyreactivity (PSR sort gate)” value is listed as “high polyreactivity”.

Turning to “QVQLVESGGGLVQAGGSLRLSCAASGSIFTVNAMGWYRQAPGKEMEFVAAITGGGTSTYYADSVKGRFTISRDNAKNTVYLQMNSLTPEVTAVYYCAATTYHYSPTYGYWGQGTQVTVSS”, the “polyreactivity (PSR sort gate)” value was “low polyreactivity”.

With “QVQLVESGGGLVQAGGSLRLICAASGRTIGRNAMRWSRQAPGKERELVAAISSSGGSTYYADSVKGRFTISRDKAKNTVYLQMNSLKPEDTAVYYCNARGWYGLRKYYYWGQGTQVTVSS”, the “polyreactivity (PSR sort gate)” value is on record as “high polyreactivity”.

Take “QVQLVESGGGLVQAGGSLRLSCAASGFIFPYYAMGWYRQAPGKERELVAAISQSGGSTYYADSVKGRFTISRDNAKNTVYLQMNSLKPEDTAVYYCAKYIPSYHDGDYWGQGTQVTVSS”: the “polyreactivity (PSR sort gate)” value is “low polyreactivity”.

With “QVQLVESGGGLVQAGGSLRLSCAPYGLTFYGYTMGWYIQAPGKQRELVASISWSGGNKYYADSVKGRFTISRDKAKNSVYLQMNSLKPEDTAVYYCAAEHWTYDCVDYWGQGTQVTVSW”, the “polyreactivity (PSR sort gate)” value is recorded as “low polyreactivity”.

Regarding “QVQLVESGGGLVQAGGSLRLRCAASGRTFWRYAMGWYRQAPGKEREFVAAISSSGGNTYYADSVKGRFTITRDNANNTVYLQTNSLKPEDTAVYYCAAYYITALGIKDYVRYYWGQGTQVTVSS”, the “polyreactivity (PSR sort gate)” value is “high polyreactivity”.

With “QVQLVESGGGLVQAGGSLRLSCAASGRTFHYNAMGWYRQAPGKERELVAAISRDGGSTDYADSVKGRFTISRDNAKNTVYLQMNSLKPEDTAVYYCAAPIGKQEFSRDYDYWGQGTQVTVSS”, the “polyreactivity (PSR sort gate)” value is “low polyreactivity”.

On to “QVQLVESAGGLVQSGGSLRLSCPASGRIFYLNAQGWYRQAPGKERELVAAITWSGGRTYYADSVKGRFTISRDYAKNSVYLQMNSLKPEDTAVYYCAAVPRPGPNTVLTPYGYWGQGTQVTVSS”, for which the “polyreactivity (PSR sort gate)” value is “high polyreactivity”.

“QVQLVESGGGLVQAGGSLRLSCAASGSTFITNIMGWYRQAPGKERELVAAISYIDGTTYYADSVKGRFTISRDYAKNTVYLQMNSLKADDTAVYYCAAVVSKSSFDYWGQGTQVTVSS”: the “polyreactivity (PSR sort gate)” value is recorded as “low polyreactivity”.

Turning to “QVQLVESGGGLVQAGGSLRLSCAASGFIFLLYAMGWYRQAPGKERELVAAIDTDTSTNYADSVKGRFTISRDNAKNTVYLQMNSLKPEDTAVYYCAREEPGVSLGVDYDYWGQGTQVTVSS”, the “polyreactivity (PSR sort gate)” value is on record as “low polyreactivity”.

With “QVQLEESGGGLVQAGGSLRLSCAASGFIFVANAMGWYIQAPWKERELVAAISRRGGSTYYADSVKGRFTISRDNAKNTVYLQMNSLKPEDTAVYYCNAYRRGLSGYGYWGQGTQVTVSS”, the “polyreactivity (PSR sort gate)” value is given as “high polyreactivity”.

As to “QVQLVESGGGLVQAGGSLRLSCAASGSTFYPYAMGWYRQAPGKERELVAAIDRGGSTSYADSVKGRFTISRDNAKNTVYLQMNSLKPEDTAVYYCAVARGGRRKYEYWGQGTQVTVSS”, the “polyreactivity (PSR sort gate)” value is on record as “low polyreactivity”.

Turning to “QVQLVESGGGLVQAGGSLRLSCAASGSTFRYNAMGWYRQAPGKERELFAAISFSGGSTYYADSVKGRFTISRDNAKNTVYLQMNSLKPEDTAVYYCAARWSSWPSYLAVPRLYYWGQGTQVTVSS”, the “polyreactivity (PSR sort gate)” value was “high polyreactivity”.

Regarding “QVQLVESGGGLVQAGGSLRLSCAASGFTFYDNAMGWYRQAPGKERELVAAISSSGTRTYYADSVKGRFTISRDNAKNTVYLQMNSLKPEDTAVYYCAARGQAYSGDRMYYWGQGTQVTVSS”, the “polyreactivity (PSR sort gate)” value was “high polyreactivity”.

Consider “QVQLVESGGGLVQAGGSLRLSCAASGLIFEVNVMGWYRQAPGTERELVAAITTGGGSTYYADSVKGRFTISRDNAKNTVYLQMNSLKPEDTAVYYCATDYSSYLYDYYTGVGGYEYWGQGTQVTVSS”, for which the “polyreactivity (PSR sort gate)” value is “low polyreactivity”.

Take “QVQLVESGGGLVQAGGSLRLSCAASGIIIHSYTMGWYRPAPGKERELVAAISTSGSTYYADSVKGRFTISRDNAKNTVYLQMHILKPEDTAVYYCNADYAQSGTNSQVGKYGYWGQGTQVTVSS”: the “polyreactivity (PSR sort gate)” value is on record as “high polyreactivity”.

In the case of “QVQLVESGGGLVQAGGSLRLSCAAYGFTFYLNAMGWYRPAPGKERELVAAISYSDGSTYYADSVKGRFTISRDNAKNTVYLQMTSLKPEDTAVYYCAADTTDPGGAYQLMDYWGQGTQVSVSS”, the “polyreactivity (PSR sort gate)” value is on record as “low polyreactivity”.

“QVQLVESGGGLVQAGGSLRLSCAATGIIFYRNAMGWYRQAPGKERELVASISKRGGSTYYADSVKGRFTISRDNAKNTVYLQMNSLKPEDNAVYYCNTRGGIARQFEIYSWGQGTQVTLSS”: the “polyreactivity (PSR sort gate)” value was “high polyreactivity”.

Consider “QVQLVESGGGLVQAGGSLRLSCAASGSTFKGTAMGWYRQAPGNERELVAAINRSGTSTYYAHSVKGRFTISRDNAKNTVYLQMNSLKPEDTAVYYCANKYFGHRFDYWGQGTQVTVSS”, for which the “polyreactivity (PSR sort gate)” value is listed as “high polyreactivity”.

Regarding “QVQLVESGGGLVQAGGSLRLSCAASGRTFVYNAMGWYRQAPGKERELVAAITRNGGSTYYADSVKGRFTISRDNAKNTVYLQMNSLKPEDTAVYYCNRDVRYVGRSGFDYWGQGTQVTVSS”, the “polyreactivity (PSR sort gate)” value is “high polyreactivity”.

For the sequence “QVQLVESGGGLVQAGGSLRLSCAASGRIFSRYAMGWYRQAPGKERELDAAINKSGGSTYYADSVKGRFTISRDNAKHTVYLQMNSLKPEDTAVYYCAADGRLRGYGYWGQGTQVTVSS”, the “polyreactivity (PSR sort gate)” value is on record as “high polyreactivity”.

For the sequence “QVQLVESGGGLVQAGGSLRLSCAASGFTFYGNAMGWYRQAPGKERELVASISTYYADSVKGRFTISRDNAKNTVYLQMNSLKPEDTAVYYCAATHYDRTYYVIYDYWGQGTQVTVST”, the “polyreactivity (PSR sort gate)” value is reported as “low polyreactivity”.

As to “QVQLVESGGGLVQAGGSLRLSCAASGRIFYLYAMGWYRQAPGKERELVAAITWSGGSTTYADSVKGRFTISRDNAKNTFYLQMNSLKPEDTAVYYCNADGWSFPSFSPMDYWGQGTQVTVSS”, the “polyreactivity (PSR sort gate)” value was “low polyreactivity”.

As for “QVQLVESGGGLVQAGGSLRLSCAASGPIFLRYAIGWYRQAPGKERVLVAVISRSGSSTYYADSVKGRFTISRDNAKNTVYLQMNSLKPEDTAFYHCAAGYSWGYSSQKLRYGYLGQGTQVTVSS”, the “polyreactivity (PSR sort gate)” value is listed as “high polyreactivity”.
